Experimental data: patent US20160022764A1 (RHYTHM PHARMACEUTICALS, published 2016)
Bridge positions count the residues as written; N and C are the ends. Square brackets hold non-standard residues; d marks the D form. Ends that are not written are not given here. dPhe(4-F) = N[C@H](Cc1ccc(F)cc1)C(=O)O; dTle = CC(C)(C)[C@@H](N)C(=O)O; Pen = CC(C)(S)[C@H](N)C(=O)O; hCys = N[C@@H](CCS)C(=O)O

B1: Compound 7: Ac-Arg-cyclo[Cys-D-Ala-Trp-D-Phe-Arg-Trp-Cys]-NH2 (peptide)
peptide: Ac-RC[dA]W[dF]RWC-NH2
modifications: disulfide 2-8
SMILES: CC(=O)N[C@@H](CCCNC(=N)N)C(=O)N[C@H]1CSSC[C@@H](C(N)=O)NC(=O)[C@H](Cc2c[nH]c3ccccc23)NC(=O)[C@H](CCCNC(=N)N)NC(=O)[C@@H](Cc2ccccc2)NC(=O)[C@H](Cc2c[nH]c3ccccc23)NC(=O)[C@@H](C)NC1=O
B2: Compound 13: Ac-Arg-cyclo[Cys-D-Ala-Pro-D-Phe-Arg-Trp-Cys]-NH2 (peptide)
peptide: Ac-RC[dA]P[dF]RWC-NH2
modifications: disulfide 2-8
SMILES: CC(=O)N[C@@H](CCCNC(=N)N)C(=O)N[C@H]1CSSC[C@@H](C(N)=O)NC(=O)[C@H](Cc2c[nH]c3ccccc23)NC(=O)[C@H](CCCNC(=N)N)NC(=O)[C@@H](Cc2ccccc2)NC(=O)[C@@H]2CCCN2C(=O)[C@@H](C)NC1=O
B3: Compound 14: Ac-Arg-cyclo[Cys-D-Ala-Pro-D-Phe(p-F)-Arg-Trp-Cys]-NH2 (peptide)
peptide: Ac-RC[dA]P[dPhe(4-F)]RWC-NH2
modifications: disulfide 2-8
SMILES: CC(=O)N[C@@H](CCCNC(=N)N)C(=O)N[C@H]1CSSC[C@@H](C(N)=O)NC(=O)[C@H](Cc2c[nH]c3ccccc23)NC(=O)[C@H](CCCNC(=N)N)NC(=O)[C@@H](Cc2ccc(F)cc2)NC(=O)[C@@H]2CCCN2C(=O)[C@@H](C)NC1=O
B4: Compound 8: Ac-Arg-cyclo[Cys-D-Ala-Gln-D-Phe-Arg-Trp-Cys]-NH2 (peptide)
peptide: Ac-RC[dA]Q[dF]RWC-NH2
modifications: disulfide 2-8
SMILES: CC(=O)N[C@@H](CCCNC(=N)N)C(=O)N[C@H]1CSSC[C@@H](C(N)=O)NC(=O)[C@H](Cc2c[nH]c3ccccc23)NC(=O)[C@H](CCCNC(=N)N)NC(=O)[C@@H](Cc2ccccc2)NC(=O)[C@H](CCC(N)=O)NC(=O)[C@@H](C)NC1=O
B5: Compound 9: Ac-Arg-cyclo[Cys-D-Ala-Asn-D-Phe-Arg-Trp-Cys]-NH2 (peptide)
peptide: Ac-RC[dA]N[dF]RWC-NH2
modifications: disulfide 2-8
SMILES: CC(=O)N[C@@H](CCCNC(=N)N)C(=O)N[C@H]1CSSC[C@@H](C(N)=O)NC(=O)[C@H](Cc2c[nH]c3ccccc23)NC(=O)[C@H](CCCNC(=N)N)NC(=O)[C@@H](Cc2ccccc2)NC(=O)[C@H](CC(N)=O)NC(=O)[C@@H](C)NC1=O
B6: Compound 17: Ac-Arg-cyclo[hCys-D-Ala-D-Phe-Arg-Trp-Pen]-NH2 (peptide)
peptide: Ac-R[hCys][dA][dF]RW[Pen]-NH2
modifications: disulfide 2-7
SMILES: CC(=O)N[C@@H](CCCNC(=N)N)C(=O)N[C@H]1CCSSC(C)(C)[C@@H](C(N)=O)NC(=O)[C@H](Cc2c[nH]c3ccccc23)NC(=O)[C@H](CCCNC(=N)N)NC(=O)[C@@H](Cc2ccccc2)NC(=O)[C@@H](C)NC1=O
B7: Compound 11: Ac-Arg-cyclo[Cys-D-Ala-Tyr-D-Phe-Arg-Trp-Cys]-NH2 (peptide)
peptide: Ac-RC[dA]Y[dF]RWC-NH2
modifications: disulfide 2-8
SMILES: CC(=O)N[C@@H](CCCNC(=N)N)C(=O)N[C@H]1CSSC[C@@H](C(N)=O)NC(=O)[C@H](Cc2c[nH]c3ccccc23)NC(=O)[C@H](CCCNC(=N)N)NC(=O)[C@@H](Cc2ccccc2)NC(=O)[C@H](Cc2ccc(O)cc2)NC(=O)[C@@H](C)NC1=O
B8: Compound 10: Ac-Arg-cyclo[Cys-D-Ala-Arg-D-Phe-Arg-Trp-Cys]-NH2 (peptide)
peptide: Ac-RC[dA]R[dF]RWC-NH2
modifications: disulfide 2-8
SMILES: CC(=O)N[C@@H](CCCNC(=N)N)C(=O)N[C@H]1CSSC[C@@H](C(N)=O)NC(=O)[C@H](Cc2c[nH]c3ccccc23)NC(=O)[C@H](CCCNC(=N)N)NC(=O)[C@@H](Cc2ccccc2)NC(=O)[C@H](CCCNC(=N)N)NC(=O)[C@@H](C)NC1=O
B9: Compound 15: Ac-Arg-cyclo[hCys-Ala-D-Phe-Arg-Trp-Cys]-NH2 (peptide)
peptide: Ac-R[hCys]A[dF]RWC-NH2
modifications: disulfide 2-7
SMILES: CC(=O)N[C@@H](CCCNC(=N)N)C(=O)N[C@H]1CCSSC[C@@H](C(N)=O)NC(=O)[C@H](Cc2c[nH]c3ccccc23)NC(=O)[C@H](CCCNC(=N)N)NC(=O)[C@@H](Cc2ccccc2)NC(=O)[C@H](C)NC1=O
B10: Compound 22: Ac-Glu-cyclo[Cys-Ala-His-D-Phe-Arg-Trp-Cys]-NH2 (peptide)
peptide: Ac-ECAH[dF]RWC-NH2
modifications: disulfide 2-8
SMILES: CC(=O)N[C@@H](CCC(=O)O)C(=O)N[C@H]1CSSC[C@@H](C(N)=O)NC(=O)[C@H](Cc2c[nH]c3ccccc23)NC(=O)[C@H](CCCNC(=N)N)NC(=O)[C@@H](Cc2ccccc2)NC(=O)[C@H](Cc2c[nH]cn2)NC(=O)[C@H](C)NC1=O
B11: Compound 16: Ac-Arg-cyclo[hCys-D-Ala-D-Phe-Arg-Trp-Cys]-NH2 (peptide)
peptide: Ac-R[hCys][dA][dF]RWC-NH2
modifications: disulfide 2-7
SMILES: CC(=O)N[C@@H](CCCNC(=N)N)C(=O)N[C@H]1CCSSC[C@@H](C(N)=O)NC(=O)[C@H](Cc2c[nH]c3ccccc23)NC(=O)[C@H](CCCNC(=N)N)NC(=O)[C@@H](Cc2ccccc2)NC(=O)[C@@H](C)NC1=O

Target: melanocortin-1 receptor (human, UniProt Q01726 1-317)
Sequence (Q01726 whole entry): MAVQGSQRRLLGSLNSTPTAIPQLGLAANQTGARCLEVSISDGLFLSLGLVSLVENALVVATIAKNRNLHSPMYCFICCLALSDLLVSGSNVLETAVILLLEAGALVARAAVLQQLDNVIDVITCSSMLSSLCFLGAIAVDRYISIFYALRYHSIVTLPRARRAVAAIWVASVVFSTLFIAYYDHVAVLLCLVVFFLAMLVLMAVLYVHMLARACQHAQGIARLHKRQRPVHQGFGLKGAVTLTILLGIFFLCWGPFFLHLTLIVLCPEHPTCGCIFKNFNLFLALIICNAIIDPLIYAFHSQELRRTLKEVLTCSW
Experiment: cell-based or functional assay

Row | Binder | Ratios of EC50 values: MC1/4 | cAMP Assay (EC-50) [nM]
1 | B1 | 8 | 273
2 | Ac-RC[dV]H[dF]RWC-NH2 (disulfide 2-8) [Compound 4: Ac-Arg-cyclo[Cys-D-Val-His-D-Phe-Arg-Trp-Cys]-NH2] | 0.93 | 1.25
3 | Ac-RC[dL]H[dF]RWC-NH2 (disulfide 2-8) [Compound 1: Ac-Arg-cyclo[Cys-D-Leu-His-D-Phe-Arg-Trp-Cys]-NH2] | 0.68 | 0.47
4 | B2 | 5 | 280
5 | B3 | 7 | 169
6 | B4 | 40 | 71
7 | B5 | 90 | 248
8 | Ac-RC[dA][His(1-Me)][dF]RWC-NH2 (disulfide 2-8) [Compound 6: Ac-Arg-cyclo[Cys-D-Ala-His(1-Me)-D-Phe-Arg-Trp-Cys]-NH2] | – | 30.4
9 | B6 | 15 | 195
10 | B7 | 6.67 | 301
11 | Ac-RC[dI]H[dF]RWC-NH2 (disulfide 2-8) [Compound 2: Ac-Arg-cyclo[Cys-D-Ile-His-D-Phe-Arg-Trp-Cys]-NH2] | 0.69 | 0.69
12 | B8 | 2.31 | 6.2
13 | Ac-RC[dA][His(3-Me)][dF]RWC-NH2 (disulfide 2-8) [Compound 5: Ac-Arg-cyclo[Cys-D-Ala-His(3-Me)-D-Phe-Arg-Trp-Cys]-NH2] | – | 4.1
14 | B9 | 15 | 4
15 | Ac-RC[dTle]H[dF]RWC-NH2 (disulfide 2-8) [Compound 3: Ac-Arg-cyclo[Cys-D-Tle-His-D-Phe-Arg-Trp-Cys]-NH2] | – | 1
16 | B10 | > 3 | 1.7
17 | B11 | 120 | 888

Target: melanocortin-3 receptor (human, UniProt P41968 1-323)
Sequence (P41968 whole entry): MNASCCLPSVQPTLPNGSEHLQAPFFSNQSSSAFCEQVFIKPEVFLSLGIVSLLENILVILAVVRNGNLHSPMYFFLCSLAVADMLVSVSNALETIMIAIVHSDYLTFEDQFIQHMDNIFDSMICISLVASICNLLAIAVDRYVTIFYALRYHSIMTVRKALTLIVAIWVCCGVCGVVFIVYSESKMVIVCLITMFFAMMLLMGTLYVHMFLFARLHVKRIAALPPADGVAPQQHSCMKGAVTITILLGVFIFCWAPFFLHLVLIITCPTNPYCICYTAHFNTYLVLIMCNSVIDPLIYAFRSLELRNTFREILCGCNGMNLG
Experiment: cell-based or functional assay

Row | Binder | Ratios of EC50 values: MC3/4 | cAMP Assay (EC-50) [nM]
18 | B1 | > 290 | > 10000
19 | Ac-RC[dV]H[dF]RWC-NH2 (disulfide 2-8) [Compound 4: Ac-Arg-cyclo[Cys-D-Val-His-D-Phe-Arg-Trp-Cys]-NH2] | 1.19 | 1.59
20 | Ac-RC[dL]H[dF]RWC-NH2 (disulfide 2-8) [Compound 1: Ac-Arg-cyclo[Cys-D-Leu-His-D-Phe-Arg-Trp-Cys]-NH2] | 1.13 | 0.79
21 | B2 | > 200 | > 10000
22 | B3 | > 400 | > 10000
23 | B4 | 5 | 8.6
24 | B5 | 30 | 81
25 | Ac-RC[dA][His(1-Me)][dF]RWC-NH2 (disulfide 2-8) [Compound 6: Ac-Arg-cyclo[Cys-D-Ala-His(1-Me)-D-Phe-Arg-Trp-Cys]-NH2] | – | 4.3
26 | B6 | 17 | 233
27 | B7 | > 22.2 | > 1000
28 | Ac-RC[dI]H[dF]RWC-NH2 (disulfide 2-8) [Compound 2: Ac-Arg-cyclo[Cys-D-Ile-His-D-Phe-Arg-Trp-Cys]-NH2] | 0.96 | 0.96
29 | B8 | 1.45 | 3.9
30 | Ac-RC[dA][His(3-Me)][dF]RWC-NH2 (disulfide 2-8) [Compound 5: Ac-Arg-cyclo[Cys-D-Ala-His(3-Me)-D-Phe-Arg-Trp-Cys]-NH2] | – | 406
31 | B9 | 3.8 | 1
32 | Ac-RC[dTle]H[dF]RWC-NH2 (disulfide 2-8) [Compound 3: Ac-Arg-cyclo[Cys-D-Tle-His-D-Phe-Arg-Trp-Cys]-NH2] | – | 0.7
33 | B10 | > 20 | 9.9
34 | B11 | 420 | 3160

Target: melanocortin-4 receptor (human, UniProt P32245 1-332)
Sequence (P32245 whole entry): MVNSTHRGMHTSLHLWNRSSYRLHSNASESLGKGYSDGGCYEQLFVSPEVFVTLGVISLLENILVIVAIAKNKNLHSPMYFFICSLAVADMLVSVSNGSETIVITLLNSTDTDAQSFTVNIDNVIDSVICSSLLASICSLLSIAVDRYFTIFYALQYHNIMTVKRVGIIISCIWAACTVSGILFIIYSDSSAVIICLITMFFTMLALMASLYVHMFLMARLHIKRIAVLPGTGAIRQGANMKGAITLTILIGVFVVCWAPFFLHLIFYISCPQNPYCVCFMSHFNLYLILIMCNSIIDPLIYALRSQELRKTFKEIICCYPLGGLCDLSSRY
Experiment: cell-based or functional assay

Row | Binder | cAMP Assay (EC-50) [nM]
35 | B1 | 34
36 | Ac-RC[dV]H[dF]RWC-NH2 (disulfide 2-8) [Compound 4: Ac-Arg-cyclo[Cys-D-Val-His-D-Phe-Arg-Trp-Cys]-NH2] | 1.34
37 | Ac-RC[dL]H[dF]RWC-NH2 (disulfide 2-8) [Compound 1: Ac-Arg-cyclo[Cys-D-Leu-His-D-Phe-Arg-Trp-Cys]-NH2] | 0.7
38 | B2 | 56
39 | B3 | 24
40 | B4 | 1.6
41 | B5 | 3
42 | B6 | 13.7
43 | B7 | 45.1
44 | Ac-RC[dI]H[dF]RWC-NH2 (disulfide 2-8) [Compound 2: Ac-Arg-cyclo[Cys-D-Ile-His-D-Phe-Arg-Trp-Cys]-NH2] | 1
45 | B8 | 2.7
46 | Ac-RC[dA][His(3-Me)][dF]RWC-NH2 (disulfide 2-8) [Compound 5: Ac-Arg-cyclo[Cys-D-Ala-His(3-Me)-D-Phe-Arg-Trp-Cys]-NH2] | 1.15
47 | B9 | 0.26
48 | B10 | < 0.5
49 | B11 | 7.5

Target: melanocortin-5 receptor (human, UniProt P33032 1-325)
Sequence (P33032 whole entry): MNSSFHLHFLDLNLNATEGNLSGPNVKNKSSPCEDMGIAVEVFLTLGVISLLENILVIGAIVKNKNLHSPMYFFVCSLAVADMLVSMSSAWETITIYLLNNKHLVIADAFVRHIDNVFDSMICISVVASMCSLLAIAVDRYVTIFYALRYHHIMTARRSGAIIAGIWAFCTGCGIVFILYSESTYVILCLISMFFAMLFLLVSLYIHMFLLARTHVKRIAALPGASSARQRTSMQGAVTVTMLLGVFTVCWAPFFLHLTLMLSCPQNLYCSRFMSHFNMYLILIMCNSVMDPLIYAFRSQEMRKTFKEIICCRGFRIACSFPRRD
Experiment: cell-based or functional assay

Row | Binder | Ratios of EC50 values: MC5/4 | cAMP Assay (EC-50) [nM]
50 | B1 | 7 | 259
51 | Ac-RC[dV]H[dF]RWC-NH2 (disulfide 2-8) [Compound 4: Ac-Arg-cyclo[Cys-D-Val-His-D-Phe-Arg-Trp-Cys]-NH2] | 584 | 782
52 | Ac-RC[dL]H[dF]RWC-NH2 (disulfide 2-8) [Compound 1: Ac-Arg-cyclo[Cys-D-Leu-His-D-Phe-Arg-Trp-Cys]-NH2] | 130 | 91
53 | RCAHFRWC (cysteine pairing not given here; also: further groups not given here) [Peptide 1] | – | 1600
54 | B2 | 13 | 707
55 | B3 | 12 | 283
56 | B4 | 155 | 255
57 | B5 | 530 | 1490
58 | Ac-RC[dA][His(1-Me)][dF]RWC-NH2 (disulfide 2-8) [Compound 6: Ac-Arg-cyclo[Cys-D-Ala-His(1-Me)-D-Phe-Arg-Trp-Cys]-NH2] | – | 467
59 | B6 | 159 | 2180
60 | Ac-RC[dI]H[dF]RWC-NH2 (disulfide 2-8) [Compound 2: Ac-Arg-cyclo[Cys-D-Ile-His-D-Phe-Arg-Trp-Cys]-NH2] | 420 | 420
61 | Ac-RC[dA][His(3-Me)][dF]RWC-NH2 (disulfide 2-8) [Compound 5: Ac-Arg-cyclo[Cys-D-Ala-His(3-Me)-D-Phe-Arg-Trp-Cys]-NH2] | – | 1080
62 | B9 | 161 | 42
63 | Ac-RC[dTle]H[dF]RWC-NH2 (disulfide 2-8) [Compound 3: Ac-Arg-cyclo[Cys-D-Tle-His-D-Phe-Arg-Trp-Cys]-NH2] | – | 672
64 | B10 | > 2560 | 1280
65 | B11 | > 1340 | > 10000
